Changes are numbered by the printed parent chain.
How the values were obtained:
GST-MaMYB69 [1] = biological target: T1, GST-MaMYB69 (banana, UniProt A0A804IQI7 1-348); assay: EMSA; Chemiluminescent EMSA Kit (Beyotime); buffer, salt, pH and temperature not stated; conditions: protein: recombinant, tags: GST (N-term, pGEX-4T-1), blunt
T1 sequence: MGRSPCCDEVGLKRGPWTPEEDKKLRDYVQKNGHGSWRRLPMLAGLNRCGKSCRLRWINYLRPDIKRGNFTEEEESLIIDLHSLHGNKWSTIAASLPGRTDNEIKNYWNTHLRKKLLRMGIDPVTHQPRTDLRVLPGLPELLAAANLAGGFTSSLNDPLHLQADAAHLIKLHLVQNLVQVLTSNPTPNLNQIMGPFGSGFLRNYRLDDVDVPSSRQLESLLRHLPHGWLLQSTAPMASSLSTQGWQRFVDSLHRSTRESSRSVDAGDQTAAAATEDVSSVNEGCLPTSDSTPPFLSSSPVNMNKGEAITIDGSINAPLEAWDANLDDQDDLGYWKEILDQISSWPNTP

GST-MaMYB69 [2] = biological target: T1, GST-MaMYB69; assay: competition; 50-fold excess mutant competitor vs N1; Chemiluminescent EMSA Kit (Beyotime); buffer, salt, pH and temperature not stated; conditions: protein: recombinant; tags: GST (N-term, pGEX-4T-1); blunt
GST-MaMYB69 [3] = biological target: T1, GST-MaMYB69; assay: competition; 50-fold excess mutant competitor vs N3; Chemiluminescent EMSA Kit (Beyotime); buffer, salt, pH and temperature not stated; conditions: protein: recombinant; tags: GST (N-term, pGEX-4T-1); blunt
GST-MaMYB69 [4] = biological target: T1, GST-MaMYB69; assay: competition; 50-fold excess mutant competitor vs N5; Chemiluminescent EMSA Kit (Beyotime); buffer, salt, pH and temperature not stated; conditions: protein: recombinant; tags: GST (N-term, pGEX-4T-1); blunt
GST-MaMYB69 [5] = biological target: T1, GST-MaMYB69; assay: competition; 50-fold excess mutant competitor vs N7; Chemiluminescent EMSA Kit (Beyotime); buffer, salt, pH and temperature not stated; conditions: protein: recombinant; tags: GST (N-term, pGEX-4T-1); blunt
GST-MaMYB69 [6] = biological target: T1, GST-MaMYB69; assay: competition; 50-fold excess mutant competitor vs N9; Chemiluminescent EMSA Kit (Beyotime); buffer, salt, pH and temperature not stated; conditions: protein: recombinant; tags: GST (N-term, pGEX-4T-1); blunt

B1: MaPE promoter probe (dsDNA)
DNA 1: GTGTCGATGGTGAAGTGTTTGGAGAAGTAGGAGCGGCAGC
DNA 2: GCTGCCGCTCCTACTTCTCCAAACACTTCACCATCGACAC
GST-MaMYB69 [1]; label: biotin
  binding result: binds

B2: MaPE mutant probe (dsDNA)
DNA 1: B1 DNA 1 with G6A, T8A, G9A, G10A, T11A
DNA 2: B1 DNA 2 with A30T, C31T, C32T, A33T, C35T
GST-MaMYB69 [2]
  binding result: no binding

B3: MaACO1 promoter probe (dsDNA)
DNA 1: ATTGCTTTCTTGTGGCCACCAACCGGAGAAAGGGAGTCTA
DNA 2: TAGACTCCCTTTCTCCGGTTGGTGGCCACAAGAAAGCAAT
GST-MaMYB69 [1]
  binding result: binds

B4: MaPL1 promoter probe (dsDNA)
DNA 1: TCCTGCATCTTGGACGAGTTTGGTGTACCCAAAGAGGACG
DNA 2: CGTCCTCTTTGGGTACACCAAACTCGTCCAAGATGCAGGA
GST-MaMYB69 [1]; label: biotin
  binding result: binds

B5: MaPL1 mutant probe (dsDNA)
DNA 1: TCCTGCATCTTGGACGAGAAAAAAGTACCCAAAGAGGACG
DNA 2: CGTCCTCTTTGGGTACTTTTTTCTCGTCCAAGATGCAGGA
GST-MaMYB69 [3]
  binding result: no binding

B6: MaGAL promoter probe (dsDNA)
DNA 1: GTAGGGAGACCAAATTGCTTGTGTGTGTTTGGTAGATAAA
DNA 2: TTTATCTACCAAACACACACAAGCAATTTGGTCTCCCTAC
GST-MaMYB69 [1]; label: biotin
  binding result: binds

B7: MaGAL mutant probe (dsDNA)
DNA 1: GTAGGGAGTTTTTTTTGCTTGTGTGTGAAAAAAAGATAAA
DNA 2: TTTATCTTTTTTTCACACACAAGCAAAAAAAACTCCCTAC
GST-MaMYB69 [4]
  binding result: no binding

B8: MaPG3 promoter probe (dsDNA)
DNA 1: AGGCATCCAACAACTTTCTCCACCAACCTTGCTTGCATAC
DNA 2: GTATGCAAGCAAGGTTGGTGGAGAAAGTTGTTGGATGCCT
GST-MaMYB69 [1]; label: biotin
  binding result: binds

B9: MaPG3 mutant probe (dsDNA)
DNA 1: AGGCATCCAACAACTTTCTCCTTTTTTCTTGCTTGCATAC
DNA 2: GTATGCAAGCAAGAAAAAAGGAGAAAGTTGTTGGATGCCT
GST-MaMYB69 [5]
  binding result: no binding

B10: MaMYB69 promoter probe (dsDNA)
DNA 1: AGGTGCCATGCCGCACACCTAAACCTCTTCTGCCCTTTTG
DNA 2: CAAAAGGGCAGAAGAGGTTTAGGTGTGCGGCATGGCACCT
GST-MaMYB69 [1]; label: biotin
  binding result: binds

B11: MaMYB69 mutant probe (dsDNA)
DNA 1: AGGTGCCATGCCGCACTTTTTTAAAAAATCTGCCCTTTTG
DNA 2: CAAAAGGGCAGATTTTTTAAAAAAGTGCGGCATGGCACCT
GST-MaMYB69 [6]
  binding result: no binding

— PMC12881857, “The MabZIP5–MaMYB69 module cooperates with MaERF55 to modulate banana fruit ripening via cell wall degradation”
